Key:
Test in all cases: two-hybrid library CCNG1;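 note: natural log of median RNA to DNA barcode read ratio; higher means stronger binding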
[1] = target: T1, 4H3782-bH
T1 chain: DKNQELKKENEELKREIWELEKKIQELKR

[2] = target: T2, 4H3427-bH
T2 chain: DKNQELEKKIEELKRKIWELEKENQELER

[3] = target: T3, 4H1828-bH
T3 chain: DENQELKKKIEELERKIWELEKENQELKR

[4] = target: T4, 4H1845-bH
T4 chain: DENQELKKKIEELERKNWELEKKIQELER

[5] = target: T5, 4H953-bH
T5 chain: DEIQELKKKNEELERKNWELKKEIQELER

[6] = target: T6, 4H754-bH
T6 chain: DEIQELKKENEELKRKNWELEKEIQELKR

[7] = target: T7, 4H338-bH
T7 chain: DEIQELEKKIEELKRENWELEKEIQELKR

[8] = target: T8, 4H3185-bH
T8 chain: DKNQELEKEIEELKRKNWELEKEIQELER

[9] = target: T9, 4H3112-bH
T9 chain: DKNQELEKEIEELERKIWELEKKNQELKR

[10] = target: T10, 4H918-bH
T10 chain: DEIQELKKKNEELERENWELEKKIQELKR

[11] = target: T11, 4H908-bH
T11 chain: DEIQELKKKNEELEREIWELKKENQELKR

[12] = target: T12, 4H883-bH
T12 chain: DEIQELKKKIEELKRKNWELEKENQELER

[13] = target: T13, 4H2442-bH
T13 chain: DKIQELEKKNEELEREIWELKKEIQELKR

[14] = target: T14, 4H568-bH
T14 chain: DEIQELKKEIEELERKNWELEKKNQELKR

[15] = target: T15, 4H72-bH
T15 chain: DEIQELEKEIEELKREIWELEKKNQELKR

[16] = target: T16, 4H2667-bH
T16 chain: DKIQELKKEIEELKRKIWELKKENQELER

[17] = target: T17, 4H3381-bN
T17 chain: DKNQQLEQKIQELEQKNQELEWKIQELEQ

[18] = target: T18, 4H687-bH
T18 chain: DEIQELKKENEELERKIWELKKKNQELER

[19] = target: T19, 4H454-bH
T19 chain: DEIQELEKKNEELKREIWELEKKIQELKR

[20] = target: T20, 4H1257-bH
T20 chain: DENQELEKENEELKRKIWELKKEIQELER

[21] = target: T21, 4H3855-bH
T21 chain: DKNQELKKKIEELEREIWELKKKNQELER

[22] = target: T22, 4H331-bH
T22 chain: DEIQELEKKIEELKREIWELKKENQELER

[23] = target: T23, 4H4001-bH
T23 chain: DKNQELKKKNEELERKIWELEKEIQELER

[24] = target: T24, 4H607-bH
T24 chain: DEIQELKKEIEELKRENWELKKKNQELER

[25] = target: T25, 4H967-bH
T25 chain: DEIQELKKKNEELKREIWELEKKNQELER

[26] = target: T26, 4H2618-bH
T26 chain: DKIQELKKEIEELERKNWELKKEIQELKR

[27] = target: T27, 4H797-bH
T27 chain: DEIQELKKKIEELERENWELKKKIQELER

[28] = target: T28, 4H1446-bH
T28 chain: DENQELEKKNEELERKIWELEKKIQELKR

[29] = target: T29, 4H717-bH
T29 chain: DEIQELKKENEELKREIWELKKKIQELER

[30] = target: T30, 4H3354-bH
T30 chain: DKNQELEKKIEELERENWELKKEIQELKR

[31] = target: T31, 4H2729-bH
T31 chain: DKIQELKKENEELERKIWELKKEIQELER

[32] = target: T32, 4H2576-bH
T32 chain: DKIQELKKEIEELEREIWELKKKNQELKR

interaction score [1]: 0.911
interaction score [2]: 0.386
interaction score [3]: -0.108
interaction score [4]: -1.83
interaction score [5]: -0.825
interaction score [6]: -0.282
interaction score [7]: -0.528
interaction score [8]: -0.808
interaction score [9]: -0.383
interaction score [10]: 0.00985
interaction score [11]: -0.669
interaction score [12]: 0.223
interaction score [13]: -0.172
interaction score [14]: -0.399
interaction score [15]: -2.61
interaction score [16]: -0.837
interaction score [17]: -0.693
interaction score [18]: 0.172
interaction score [19]: 1.26
interaction score [20]: -1.44
interaction score [21]: -0.288
interaction score [22]: -0.435
interaction score [23]: -0.377
interaction score [24]: -0.218
interaction score [25]: -1.63
interaction score [26]: 0.0958
interaction score [27]: -0.73
interaction score [28]: -0.833
interaction score [29]: -0.541
interaction score [30]: -0.79
interaction score [31]: 0.0373
interaction score [32]: 0.394
Binder: DENQELEKENEELKRKIWELKKEIQELER [4H1257-bH]

Source: publication PMC10397247
